This series is described as follows: yeast display, Sf9 membrane polyspecificity reagent, FACS + sequencing; frameworks hold sequencing errors. In a few lines: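 Synthetic nanobody libraries on Saccharomyces cerevisiae BJ5465 were galactose-induced for 36–48 hours, stained 1 hour at 4 °C with 10% biotinylated, detergent-solubilized Sf9 membrane reagent and enriched on streptavidin microbeads. FACS then separated cells into low and high (top ~1%) gates by anti-HA (expression) and streptavidin (reagent binding) fluorescence. Genes were colony-PCR amplified, MiSeq 2 × 250 sequenced and CDR-length filtered. A clone's polyreactivity label is that of its gate of origin.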
Consider “QVQIVESGGGLVQAGGSLRLSCAASGSTFVENAMGWYRPAPGKERELVAAISSSGDSTFYADSVKGRFTISRDNAKNNVYLQMNSLKPEDTAVYYCAADRRINYDGLDMDYWGQGTQVTVSS”, for which the “polyreactivity (PSR sort gate)” value is “low polyreactivity”.
Turning to “QVQLVESGAGLVQAGGSLRLSCAASGSTFPFYAMGWSRQAPGKERELVAAITSGGSTYADSVKGRFTISRDNAKNTVYLQMNSLKPEDTAVYYCNAEQNPSGLYDYRGVEGEMGYWGQGTQVTVSS”, the “polyreactivity (PSR sort gate)” value is reported as “low polyreactivity”.
To “QVQLVESGGGLVQAGGSLRLSCAASGRIYNSYAMGWYRQAPGKERELVASTNYADSVKGRFTISRDNAKNTVYLQMNSLKPEDSAVYYCARVDVGWQGGEVLFGRFGYWGQGTQVTVSS” belongs “low polyreactivity”.
As for “QVQLVESGGGLVQAGGSLRLSCAASGTTIPRNAMGWYRQAPGKERELVAAITSGGSTNYADSVKGRFTISRDNAKNTVYLQMNSLKPEDTAVYYCAADEQVNTQYVVWGDYWGQGTQVTVSS”, the “polyreactivity (PSR sort gate)” value is given as “low polyreactivity”.
To “QVQLVESGGGLVQAGGSLRLSCAASGSTFFIYAMGWYRQAPGKERELVAAISWRDGSTYYADSVKGRFTISRDNAKNTVYLQMNSLKPEDTAVYYCAADYLLPWGIELDYWGQGTQVTVSS” belongs “high polyreactivity”; to “QVQLVESGGGLVQAGGSLRLSCAASGRTFEHYGMGWYRQAPGKEREFVADISRIGGSTYADSVKGRFTISRDNAKNTVYLQKNSLKPEDSAVYYCNKARYQLGSGYNYWGQGTQVTVSS”, “low polyreactivity”; to “QVQLVESGGGLVPARGSLRLSCAASGRTFGPYAMGWYRQAPGKERELVAAITDTGSGTYYADSVKGRFTISRDNSKNTVYLQMNSLKPVDTAVYYCNAVRKYWGQGTQVTVSS”, “low polyreactivity”.
To “QVHLVESGGGLVQAGGSLRLICAASGISFLAYAMGCYRHAPRKERELVAAISTDGGSTYYADSVKGRFTISRDNAKNTVYLQMNSLKPVYTAVYYCAAKQRYVRTRGMDYWGQGTQVTVSS” belongs “high polyreactivity”; to “QVQLVESGGGLVQAGGSLRLSCAASGIIFKYYAMGWSRQAPGKERELVAAISWTGDSTYADSVKGRFTISRDNAKNTVYLQMNSLKPEDTAVYYCAVAFRRVRSLGEGYWGQGTQVTVSS”, “low polyreactivity”; to “QVQLVESGGGLVQAGGSLRLSCAASGSIFDGNAMGWYRQAPGKERELVAAISRRGGSTYYADSVKGRFTISRDKAKNTVYLQMNSLKPEDTAVYYCNAYLSYFDGNYWGQGTQVTVSS”, “high polyreactivity”.
For “QVQLVESGGCLVQSGGSLRLSCAASGSTFRGYAMGWYRQAPGKEREFVAAISKGGASTYYADSVKGRFTISRDNAMNTVYLQMNSLKPEDTAVYYCAKGAYRRAYGTYYYWGQGTQVTVSS”, the “polyreactivity (PSR sort gate)” value is recorded as “high polyreactivity”.
In the case of “QVQLVESGGGLVQAGGSLRLSCAASGRTFFGYAMGWYRQAPGTERELVAAINWGGASTYYADSVKGRFTISRDNAKNTVYLQMNSLKPEATAVYYCAADSVPSRPTYGRYDYWGQGTQVTVSS”, the “polyreactivity (PSR sort gate)” value is listed as “low polyreactivity”.
To “QVHLVESGGGLVQAGGSLRLSCAASGFILPYYAMGWYRQAPGKERELVAAISRSGGGTYYADSVKGRFTISRDNAKNTVYLQMNSLKPEDTAVYYCAADYSAYEYEYWGQGTQVTVSS” belongs “high polyreactivity”.
For “QVQLVESGGGLVQAGGSLRLSCAASGSIFAYAMGWYRKAPGKEREFVAAISGGSTYYADSVKGRFTISRDNAKNTVYLQMNSLKPEDTAVYYCAADLDDERYYWGQGTQVTVSS”, the “polyreactivity (PSR sort gate)” value is recorded as “low polyreactivity”.
To “QVQLVESGGCLVQAGGSLRLSCAASGSTFWWNTMGWYRQAPGKERELVADIRTSGGGTYYADSVKGRFTISRDNAKNTVYLQMNSLKPEDTAVYYCNADPKWEMGSWGQGTQVTVSS” belongs “low polyreactivity”.
As for “QGQRVESGGGLVQAGGSLRLSCAASGSIFSYNTMGWYRQAPGKEREFVATIDWRDGSTYYADSVKGRFTISRDNAKNTVYLQMNSLKPEDTAVYYCATYYIVVEDNYWGQGTQVTVSS”, the “polyreactivity (PSR sort gate)” value is “high polyreactivity”.
Next, “QVQLVESGGGLVQAGGSLRLSCAASGRIFGRNAMAWYRQAPGKERELVAAISTSGGTYYADSVKGRFTISRDNAKNTVYLQMISLKPEDTAVYYCNDRGRTQQRWVDYWGQRTQVTVSS”: “high polyreactivity”; “QVQLVESGGGLVQAGGSLRLSCAASGRTFFYYAMGWYRQAPGKERELVAGITKRGGSTYYADSVKGRFTISRDNAKNSVYLQMNSLKPEDSAVYYCAKSFTQSSTDGYWGQGTQVNVSS”: “high polyreactivity”.
To “QVQLVESGGGLVQAGGSLRLSCAASGRTFTRYAMGLYRQAPGKERELVAGITGRAGSTYYADSVKGRFTISRDNAKNTVYLQMNSLKPEDTAVYYCAADAGYRRSSLYEYDYWGHGTQVTVSS” belongs “low polyreactivity”; to “LVQLVESGGGLGQAGGSLRLSCAASGFTFTIYAMGWYRQAPGKERELVAAISSSGYSTYYADSVKGRFTISRDNAKNTVYFQMISLKPEDTAVYYCAARGYYRSHLGFLYDYWGQGTQVTVSS”, “high polyreactivity”.
Next, “QVQLVESGGGLVQAGGSLRLSCAASGIIFRYNAMGWYRQAPGKERELVAAISRSSGSTYYADSVKGRFTISRDNAKNTVYLQMNSLKPEDTAVYYCAAYPRYRVEYWGQGTQVTVSS”: “high polyreactivity”; “QVQLVESGGGLVQAGGSLRLSCSASGRTFANYAMGWYRQAPGKERELVAAISSGGNTYYADSVKGRCTISRDNAKNTVYLQMNSLKPEDTAVYYCAAQPYYYFDEYTQYDYWGQGTQVTVSS”: “high polyreactivity”; “QVQLVESGGCLVPAGGSLRLSCAASGFIIDWYDMAWYRQAPGKERELVAAITRSAGRTYYADSVKGRFTISRDIAKITVYLQMNSLKPEDTAVYYCAARSSSAGGGDGYWGQGTQVTLSS”: “high polyreactivity”.
“QVQLVESGGGLVQAGGSLRLSCAASGIILYTYAMGWYRQAPGKEREFVAGIRWSGSSTYYADSVKGRFTISRDNAKNTVYLQMNSLKPEDTAVYYCATGQPYGPLYSLGYGYWGQGTQVTVSS”: the “polyreactivity (PSR sort gate)” value is given as “high polyreactivity”.
Next, “QVQLVESGGGLFQAGGSLSLSCAASGSTFVKYAMGWYRQAPGKERELVATITRRGGNTYYADSVKGRFKISRVNAKNTVYIQLNSLKPEDTEVYYCNRADYRASYSGQGSYDYWGQGTQVTVSS”: “high polyreactivity”; “QVQLVESGGGLVQAGGSLRLSCDASGSIFYPYAMGWYRQAPGKERELVASISWSGGSTRYADSVKGRFTISRDHAKNTVYLQMNSLKPEDTAVYYCAARYILSKYGSGVRYYYWGQGTQVTVSS”: “high polyreactivity”.
On to “QVQLVESGGGLVQAGGSLRLSCAASGSTFTYYAMGWYRQAPGKERELVAAITGRGGRTYYADSVKGRFTISRDNAKNTVYLQMNSLKPEDTAVYYCARYPSSDTYWTKYDYWGQGTQVTVSS”, for which the “polyreactivity (PSR sort gate)” value is reported as “high polyreactivity”.
Take “QVQLVESGGGLVQAGGSLLLSSAASGRTFSINAMGWYRQAHGKERELVAAITWSGGSTYYADSVKGRFTISRDNAKNTVYLQMNSLKPEDTAVYYCNAGLGKFPVKGGRRYRLDYSGQGTQVTVSS”: the “polyreactivity (PSR sort gate)” value is reported as “low polyreactivity”.
To “QVQLVESGGGLVQAGGSLRLSCAASGSIFKYSAMAWYRPAPGKERELVATITSGGRTNYADSVKGRFTISRDNAKNTVYLQMNSLKPEDPAVYYCAAGSYYPYHSTTRWYVYWGQGTQVTVSS” belongs “high polyreactivity”.
For “QVQLVESGGGLVQAGGSLRLSCAASGRTLRRYAMGWYRQAPGKERELVAAITSGGTTNYADSVKGRFTISRDNAKNTVYLQMNSLKPEDTAVYYCNARKSSGLSSYDWYSWEYGYWGQGTQVTVSS”, the “polyreactivity (PSR sort gate)” value was “low polyreactivity”.
To “QVQLVESGGGLVQAGGSLRLSCAASGSTFHRNAMGWYRQAPGKERELVASISIGGSTNYADSVKGRYTISRDNAKNTVYLQMNSLKPEDTAVYYCATEPNPRRPRVDYDYWGQGTQVTVSS” belongs “low polyreactivity”; to “QVQLVESGGGLLQAGGSLRLSCAASGRIYWNDMAWYRQAPGKERELVAAISWGGDRTYYADSVKGRFTISRDNAKNTVYLQMNSLKPEDTAVYYCNAPGYLTYDHSYDYWGQGTQVTVSS”, “low polyreactivity”; to “QVQLVESGGGLVQAGGSLRLSCAASGSIFYYKYSMGWYRQAPGKERELVAAITSTGGTTYYADSVKGRFTISRDNAKNTVYLQMNSLKPEDTAVYYCAALAPYIGGVDYDYWGQGTQVTVSS”, “low polyreactivity”.
To “QVQLVESGGGLVQEGGSLRLSCAASGFIFRYYAMGWYRQAPGKERELVAAISSSGGSTYYADSVKGRFTISRDNAKNTVYLQMNSLKPEDTAVSYCNAYNYGYIGYGYNYWGQGTQVTVSS” belongs “high polyreactivity”.
Next, “QVQLVESGGGLVQAGGSLRLSCADSGSNFRTYVMGWYRQAPGNERDMVAAITNGISTNYADSVKGRFTISRDNAKNSVYLQMISMKPEDTAVYYCAAGFRSTYYTFRFGYWGQGTQVTVST”: “high polyreactivity”; “QVQLVESGGGLVQAGGSLRLSCAASGSIFAVYTMGWYRQAPGKEREVVAAITKSGGRTYYADSVKGRFTISRDNAKNTVYLQMNSLKPEDTAVYYCARRRTIPYTLVDYDSWGQGTQVTVSS”: “low polyreactivity”; “QVQLVESGGGLVQAGGSLRLSCAASGRTFLWYAKGWYRQAPGKEMELVATITSGDSTIYADSVKGRFTISRDNEKNTVYLQMNSLKPVDTAVYYCAAGYYYYLRDHDYWGQGTQVTVSS”: “low polyreactivity”.
Consider “QVQLQESGGGLVQAVGSLRLSCAASGYISSWYPMGWYRQAPGKEREFVATIAPGATTYYADSVKGRFTISRDYAKKTVYLQMNSLKPEDTAVYYCAAGPEKNDFYSYWGQGTQVTVSS”, for which the “polyreactivity (PSR sort gate)” value is “low polyreactivity”.
Next, “QLQLVDSGGGLVQAGGSLRLSCAASGSIFAQYAMGWYRQAPEKERELVADISGDGSTYYADSVKGRFTISRDNAKNTVYLQMNSLKPEDTAVYYCADRKLYGSPEHGYWGQGTQVTVSS”: “high polyreactivity”.
To “QVQLVESGGGLVQAGGSLRLSCAASGSIFITYAMGWYRQAPGKERELVAAITWRGGSTYYADSVKGRFTISRDNAKNTVYLQMNSLKPEDTAVYYCAAEDFYYRSQYRYWYDYWGQGTQVTVSS” belongs “high polyreactivity”; to “QVQLVESGGGLVQAGGSLRLSCAASGRTFRVYAMGWYRQAPGKEREFVAAISYSGGRTYYADSVKGRFTISRDNAKNTVYLQMKSLKPEDTAVYYCAKRVPYGRGVTGYYWGQGTQVTVSS”, “high polyreactivity”.

The record behind these values is the nanobody polyreactivity screen of Harvey et al. (2022).
